{"source": "the DeepSol protein solubility set", "data": [{"assay": "soluble on expression in E. coli; label from the status in PepcDB or PDB records", "values": [{"sequence": "MGSDKIHHHHHHAQIADRVYKTDYHIDPEKARELSVELDNISFFKDNEYTGKFTKGYSLPGLWVQGKAVYYPLRNIKLEAGVHMLIYHGANKYPSMAYQDIAYWKGDQYQKGVHVLPYFRAQMALSDHVNIVLGNIYGASNHNLIEPLYNPELNLTCDPEAGLQLLYDSKAFDLDVWVNWQSFIFREDVHQEAFTVGISSRLKYNDPASRFHFYTPVQGLVQHRGGEIDTIFNNSVQTLMNGAIGVGGVWNTGHRIFKNLNVELDATGYYQQAGEIWPFDSGYGLYARASADIYDFRVKTSYWTCEDFISMFGSPFFGAASMIDEGVTFDRPQMIYLGVEYSRQLAKGFSIGVDVDVFHHLSGDMNDADGVKQPMGSATSFTAGVYMRINPSFLIKKF", "soluble on expression in E. coli": "not soluble"}, {"sequence": "MMTMWVFGYGSLMWNPGFPVARRELATLSGWSRSFCMSSIHHRGTEEKPGLVLALDAVHNARCRGIAFAVEPGHEARTLDELRERELISSAYLERELEIDLDIGERVCAVTYVIDPHHEQYCGGMPLERQAQIIATAIGGRGPNTEYLYNTAAHLAEIGLGDPDLDWLSARVREITSLEHHHHHH", "soluble on expression in E. coli": "soluble"}, {"sequence": "MKRLLILTALLPFVGFAQPINTLNNPNQPGYQIPSQQRMQTQMQTQQIQQKGMLNQQLKTQTQLQQQHLENQINNNSQRVLQSQPGERNPARQQMLPNTNGGMLNSNRNPDSSLNQQHMLPERRNGDMLNQPSTPQPDIPLKTIGP", "soluble on expression in E. coli": "soluble"}, {"sequence": "MRFLSLLCPPVERAAVMRPPYTTHLQRVPLMRKSLLALSLLAATSAPVLAADYSDGDIHKNDYKWMQFNLMGAFDELPGKSSHDYLEMEFGGRSGIFDLYGYVDVFNLATNKSSDKVGDPKIFMKFAPRMSLDAFTGVDMSFGPVQEVYVASLFEWDGTDFKTNAFSVNNQKIGLGSDVMVPWFGKVGLNLYGTYDGNRKDWNGFQISTNWFKPFYFFENGSFISYQGYIDYQFGLKDEYSTASNGGAMFNGIYWHSDRFAVGYGLKGYKDVYGIKDTDGFKSTGFGHYVAVTYKF", "soluble on expression in E. coli": "not soluble"}, {"sequence": "MSLRKPPLHMLPLGGCGEIGMNFTLYGHQDHWIVVDCGMMIRQDLPQAPLQVPNVDMLASQNIVPRAIVVTHGHEDHIGAIAWLWPRWQCPVHATPLAAGLLRLRFAEQQLPTSAIQVITPGDAMESGPFDIRFLPLPHSIPESCALLLTTPQHRILHTGDWKLDPEPLIGKPASPQRFQALAPVDLVVGDSTNAPVPGHSRSEGEVARALETTIGACPGRVIVSCFASNLARILALGRAAHACGRRVSLMGRSMERMVGVARGLGYLEDFPPLVPVRDLGYLPPEEVLVIATGSQGEPRAALSRLAQGRHADFELHPGDSVIFSAKAIPGNELLIERLQAGLKRAKVTIFDERSHPELHASGHPAQAELRRFYEWVKPRRLLPVHGEQQHQQAHRALAESLGIEVPWIPRNGDMLRLDAEGLHCESRHSLAPHIVTQNRIHPLEGLRAPEASSMHRRSGILSLTLPVVRQSTGWVRIGRLLWDTSHDLPLDDVALADWVDEQLAGHDADTIVTLRQRLHGPLMHWLGDHLRHLPDVHLHIMAAEGDTVYDAEGHHHHHH", "soluble on expression in E. coli": "soluble"}, {"sequence": "GKRLYNVKQSALSIRQIDLQRRHIEQSIRMGIKNQNDRLRTCMQRFVASEEAVRSAEKGYQIAEKRYQTGEGTLVELNDADVALLQARLNYNQAIFDFMTAKAELDKMNGMGIPEQ", "soluble on expression in E. coli": "not soluble"}, {"sequence": "MGITALAFDFGTKSIGCAIGQSITGTAQALPAFKAQDGIPNWEAIEKCLKEWKPDVVIVGLPLNMDGTEQDLTLRARKFANRLQGRFGVNVHLQDERLTTTQARSEIFERGGFKALKKGKIDGVSACLILESWFEYAEY", "soluble on expression in E. coli": "not soluble"}, {"sequence": "GLVAPGYKMATVAVDHLLGNTESKFEGADMSAKLKLLGVKVGSIGDANGRTEGCKSYVYQNEEQEVYKRLIVSEDNKKLLGAVLVGDTSDYGDLLQLMLNEIDLPEHPDALILPAHAGAEKPALGADALPESAVICSCFDVTKGKIAQAVADGHHTLGDIK", "soluble on expression in E. coli": "not soluble"}, {"sequence": "MLRIGLTGGIGAGKSLLSTTFSQCGGIVVDGDVLAREVVQPGTEGLASLVDAFGRDILLADGALDRQALAAKAFRDDESRGVLNGIVHPLVARRRSEIIAAVSGDAVVVEDIPLLVESGMAPLFPLVVVVHADVELRVRRLVEQRGMAEADARARIAAQASDQQRRAVADVWLDNSGSPEDLVRRARDVWNTRVQPFAHNLAQRQIARAPARLVPADPSWPDQARRIVNRLKIACGHKALRVDHIGSTAVSGFPDFLAKDVIDIQVTVESLDVADELAEPLLAAGYPRLEHITQDTEKTDARSTVGRYDHTDSAALWHKRVHASADPGRPTNVHLRVHGWPNQQFALLFVDWLAANPGAREDYLTVKCDADRRADGELARYVTAKEPWFLDAYQRAWEWADAVHWRP", "soluble on expression in E. coli": "soluble"}, {"sequence": "MGSDKIHHHHHHMARRKEHSHDEIRVMAIEAAIALLQQQGVQGLSLRKIASEIGYVPSTLINIFGSYNYLLLAVSEATLQLLMSHLSAVSENDSLRHIIVMAQKYSEFAHSQRQCFKLVFELQLLESEHLPASQGQLIANLFRLIENELALLFPNETIEQQLQMSRVLWGGIHGLTALSLDNKLFADTVSLPALLESHVTGYLQGMGYQREEACC", "soluble on expression in E. coli": "not soluble"}, {"sequence": "MQPMTARFDLFVVGSGFFGLTIAERVATQLDKRVLVLERRPHIGGNAYSEAEPQTGIEVHKYGAHLFHTSNKRVWDYVRQFTDFTDYRHRVFAMHNGQAYQFPMGLGLVSQFFGKYFTPEQARQLIAEQAAEIDTADAQNLEEKAISLIGRPLYEAFVKGYTAKQWQTDPKELPAANITRLPVRYTFDNRYFSDTYEGLPTDGYTAWLQNMAADHRIEVRLNTDWFDVRGQLRPGSPAAPVVYTGPLDRYFDYAEGRLGWRTLDFEVEVLPIGDFQGTAVMNYNDLDVPYTRIHEFRHFHPERDYPTDKTVIMREYSRFAEDDDEPYYPINTEADRALLATYRARAKSETASSKVLFGGRLGTYQYLDMHMAIASALNMYDNVLAPHLRDGVPLLQDGA", "soluble on expression in E. coli": "soluble"}, {"sequence": "MFSPLRRLTTTGLQLQKLQKLQKLQQFQPARAVHLTVFQQKGHSKWQNIKAVKGKNDLIRSKATNFLLRKVRGAVSRGGFDMKLNRELADLESEFRAQGLPLDTLKNFLQKMKDKPEVEYSFDIIGPSGIFLIVTAETSNKKAFENDLRKYFNKLGGFRLAADGGVRSWFEEKGVVHVDTKKGGKILNIEEMEEIGLEFDAEEVLLIEEDSTKKFELICDAKSLQTLENGLGKGGFSILQSEIEFRPVHPIDCPEAEEPKVQKLYEMLQEDEQVRQIFDNITPDE", "soluble on expression in E. coli": "not soluble"}, {"sequence": "MPIAQLLELWKKIEVEPMEIETTEEDLNLDVGPATEDTAEEGKSDSAACKTKVAGSVEEEGVVKEIDISHHVKEGFEKADPSQFELLKVLGQGSYGKVFLVRKVKGSDAGQLYAMKVLKKATLKVRDRVRSKMERDILAEVNHPFIVKLHYAFQTEGKLYLILDFLRGGDLFTRLSKEVMFTEEDVKFYLAELALALDHLHSLGIIYRDLKPENILLDEEGHIKITDFGLSKEAIDHDKRAYSFCGTIEYMAPEVVNRRGHTQSADWWSFGVLMFEMLTGSLPFQGKDRKETMALILKAKLGMPQFLSGEAQSLLRALFKRNPCNRLGAGIDGVEEIKRHPFFVTIDWNTLYRKEIKPPFKPAVGRPEDTFHFDPEFTARTPTDSPGVPPSANAHHLFRGFSFVASSLIQEPSQQDLHKVPVHPIVQQLHGNNIHFTDGYEIKEDIGVGSYSVCKRCVHKATDTEYAVKIIDKSKRDPSEEIEILLRYGQHPNIITLKDVYDDGKFVYLVMELMRGGELLDRILRQRYFSEREASDVLCTITKTMDYLHSQGVVHRDLKPSNILYRDESGSPESIRVCDFGFAKQLRAGNGLLMTPCYTANFVAPEVLKRQGYDAACDIWSLGILLYTMLAGFTPFANGPDDTPEEILARIGSGKYALSGGNWDSISDAAKDVVSKMLHVDPHQRLTAMQVLKHPWVVNREYLSPNQLSRQDVHLVKGAMAATYFALNRTPQAPRLEPVLSSNLAQRRGMKRLTSTRL", "soluble on expression in E. coli": "soluble"}, {"sequence": "MFVFGAYWFDCGERAVLPANSRGALRPQCTRLRFWRGRYWHRGAVSALRRVRPLSASTPSPRVLDGSQSLADTPDNVQQLLQHMSQELDSVVQSMVHLEEYALEQVEKLKGAMEADLRKLALYEEEQAFAQKLTEQLQKKEGAVFEAMRHFLFHVVGLQEQTVAITNELQVLHEFVSENHERVELVLESLRERGLFGSRQDVFEGEVKKKLDRFDPEI", "soluble on expression in E. coli": "not soluble"}, {"sequence": "MSLRIQDGTMRYTYKGVPTYKNPFDLALYQMLLWQQKPRTLIEIGSKWGGSALWFADMMCSFGVDCVIHSIDITPPSISVPGVTFHRGDGRDLAATLPADLMESLPRPIFVIEDADHHCETTLAVLRFFDRWLVAGEYIAVEDGIVDDLYGPEFVARLMGGPRRAVELFLRDRGQNYEIDTGLCDHFGTNVTWNVNGYLRRVREGHHHHHH", "soluble on expression in E. coli": "not soluble"}, {"sequence": "MAKRGRPCGFDREQALRRALDVFWEAGYEGVTMAALKEAMGGICAPSMYAAYGSKEALFRSAVELYLSQECQLSKGAFALPTARESIAALLESAAVSYTTEGKPRGCLVDLSTTNFSPANKGVEDYLRDHRRRAARLLRERFARGVADGDVPAGADLDALTSFYSSVLQGLSIQARDGASRQQLLAIGRCAMAAWDSLLAVEAA", "soluble on expression in E. coli": "not soluble"}, {"sequence": "AIAAAPIESLLNEICESEDPIEELKSLRTAVLATPVSGLRPAVSGARLEIIFSLLNTNDKEQIEVCVEILSRVLQALEPVQLAQNYRTALQSGLNHPDDSVKVLTLTQIGRVAGHTEGVTQMLNNVEILHDVIQCISVERIAVAKEAIAALSKLSNTKAGLDALFRSDLLNKLKDVMLTSDIIRYRVYELIVEVSTVSPVSLGYCANSGLISQMLEELTGDDVLVRATAIEMVTNLAQSQHGRQYLAQQGIMDKISSVQKIFGAHNYLKLKTYLNEGSYYVTAVSAVTTEGAD", "soluble on expression in E. coli": "soluble"}, {"sequence": "VTLSLTKDNFDDVVNNADIILVEFYAPWCGHCKKLAPEYEKAAKELSKRSPPIPLAKVDATEQTDLAKRFDVSGYPTLKIFRKGRPFDYNGPREKYGIVDYMIEQSG", "soluble on expression in E. coli": "soluble"}, {"sequence": "MSRRLPPLNSLRVFEAAARHLSFTRAAEELFVTQAAVSHQIKALEEFLGLKLFRRRNRSLLLTEEGQSYFLDIKEIFSSLSEATDKVLERSAKGALTISLPPSFAIQWLVPRLSDFNNQEPDIDVRIKAVDMDEGSLTEDVDVAIYYGRGNWPGLRVELLYQEQLLPLCSPQVLLNEKPLATIDDLRFHTLLHDTSRKDWKQFVKHYELAGMNVNQGPIFSHSTMVLQAAAHGQGIALGNNVLAQPELDAGRLVAPFEEVLVSKNAFYLVCNEKQADTGRIATFREWILSKARSEQEIVDDE", "soluble on expression in E. coli": "soluble"}, {"sequence": "MNLTNYHSHTLYCDGRAGMEDFIRFAISRGFTSYGISSHAPLPFPTHWTMEWDRMDDYLDEFTRMKEKYASEIELAVGLEIDYLNEDSNPSVRRFQELPLDYRIGSVHLLYNDRDEVVDIDVCAEVFRDIVDQHFGGDLDRVIHLYYDRLLRMVELGGFDILGHADKMHHNAACYRPGLLDESWYDALIHDYFSAVAAKGYIVEINTKALHHLNTFFPNERYFPLLKELGVRVQVNSDSHYPERINSGRPEALAALQKAGFETVTEWHGGKWIEMPL", "soluble on expression in E. coli": "not soluble"}, {"sequence": "MGSDKIHHHHHHMTQNTPLFSMESVSVRHNSVPALDAVSWTLHRGAHCAVLGGNGAGKSTLLRLAAGAIRPDQHDGGTVLWFPRGSAEDSPIAVRTHCGLVSAEQQEHYLRRSWRITGEEIVLSGYFGTDMLYRPAGTAQRHAAARLAKALDAEHLMPVMLEAMSQGQLRKILLARAMVHSPQLLLLDEVCEGLDAAARREMLAAIDRAAALGTTVLMSGHRAGQFPDCIRQAVLLRQGRLVFTGGLHQALHLMRTTHQPLPAGASDTAAGQCSCCTPPPACAGAAPVVEIEHADVYLGRTPVLHDITWSILPGQNWVVRGPNGAGKSTLLRLLYGDQRQAWGGIVRWFGMAGPVPLEEVRRNVALVSDRVQALYGHDGYHSTRLELNGEELVHTGFYDSTGLWGKTPDAQQHAAALRWMDRLGIAALAGTDIRRMSYGTLRRFMLARALVRDPQLLILDEPLSGLDESARRIMLTTLSALMRSGRQLVLVTHHQEDIQPETTHELHLNAGRITYCGPVCPAGDTL", "soluble on expression in E. coli": "not soluble"}]}]}
